Changes are numbered by the printed parent chain. Names may count otherwise.

Assay [1] has as its target T1, DNA polymerase III α subunit (Escherichia coli, UniProt P10443 1-1160). Briefly: single molecule DNA stretching.
The target of assay [2] is T1, DNA polymerase III α subunit. Briefly: other fluorescence titration.

T1 sequence (P10443 whole entry): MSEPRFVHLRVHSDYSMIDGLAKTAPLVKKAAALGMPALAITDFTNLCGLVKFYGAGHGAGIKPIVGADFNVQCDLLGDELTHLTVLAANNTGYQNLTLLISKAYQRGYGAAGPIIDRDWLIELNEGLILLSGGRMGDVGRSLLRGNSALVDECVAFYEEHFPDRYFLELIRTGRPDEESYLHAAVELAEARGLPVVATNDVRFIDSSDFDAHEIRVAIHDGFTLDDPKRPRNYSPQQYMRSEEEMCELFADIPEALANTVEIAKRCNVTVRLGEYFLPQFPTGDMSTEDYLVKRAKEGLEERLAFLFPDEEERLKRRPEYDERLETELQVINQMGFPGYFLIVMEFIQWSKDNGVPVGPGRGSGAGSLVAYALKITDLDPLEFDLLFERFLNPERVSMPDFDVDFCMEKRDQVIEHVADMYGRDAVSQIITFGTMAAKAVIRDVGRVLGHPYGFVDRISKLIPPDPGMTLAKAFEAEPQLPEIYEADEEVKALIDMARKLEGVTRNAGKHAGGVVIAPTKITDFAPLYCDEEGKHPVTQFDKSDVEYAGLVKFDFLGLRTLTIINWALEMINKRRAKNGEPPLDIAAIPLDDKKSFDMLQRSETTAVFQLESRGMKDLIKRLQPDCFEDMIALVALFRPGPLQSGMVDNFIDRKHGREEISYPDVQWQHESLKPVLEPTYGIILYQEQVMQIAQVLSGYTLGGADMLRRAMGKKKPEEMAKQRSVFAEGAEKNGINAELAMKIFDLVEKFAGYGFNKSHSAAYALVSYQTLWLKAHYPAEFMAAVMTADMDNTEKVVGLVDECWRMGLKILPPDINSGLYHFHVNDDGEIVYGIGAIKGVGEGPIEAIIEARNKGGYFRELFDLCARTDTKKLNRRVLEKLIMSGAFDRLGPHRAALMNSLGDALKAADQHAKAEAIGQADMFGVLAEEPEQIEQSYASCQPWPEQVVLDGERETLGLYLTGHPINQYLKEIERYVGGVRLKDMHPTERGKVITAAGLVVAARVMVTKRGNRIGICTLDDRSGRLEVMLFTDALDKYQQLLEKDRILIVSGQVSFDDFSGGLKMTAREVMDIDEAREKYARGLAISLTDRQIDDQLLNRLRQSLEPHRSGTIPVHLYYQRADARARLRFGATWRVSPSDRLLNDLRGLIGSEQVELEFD

B1: UmuD, wild type (natural protein, Escherichia coli, UniProt P0AG11 1-139, looked up)
chain: MLFIKPADLREIVTFPLFSDLVQCGFPSPAADYVEQRIDLNQLLIQHPSATYFVKASGDSMIDGGISDGDLLIVDSAITASHGDIVIAAVDGEFTVKKLQLRPTVQLIPMNSAYSPITISSEDTLDVFGVVIHVVKAMR
For the molecule B1, the Kd in assay [1] stood at 0.34 ± 0.103 µM.

B2: UmuD D91K (natural protein, Escherichia coli, UniProt P0AG11 1-139, looked up)
chain: B1 chain with D91K
On to B2, for which, in assay [2], binding was put at a Kd of 18.1 µM.

B3: UmuD D91K-G92K (natural protein, Escherichia coli, UniProt P0AG11 1-139, looked up)
chain: B1 chain with D91K, G92K
Regarding B3, in assay [2], binding was characterised by a dissociation constant (Kd) of 32.5 µM.

B4: UmuD G92K (natural protein, Escherichia coli, UniProt P0AG11 1-139, looked up)
chain: B1 chain with G92K
B4 came in with a Kd in assay [2] of 1.3 µM.

Values taken from PMC3799427 (Nucleic Acids Research, 2013).
